These are literature values, as cited in PMC5672955.

By Kd is commonly meant a measure of binding affinity in units of concentration.

The target in this series is RNA polymerase (Escherichia coli) (UniProt P0A7Z4).

Chain of UvrD (P03018 whole entry): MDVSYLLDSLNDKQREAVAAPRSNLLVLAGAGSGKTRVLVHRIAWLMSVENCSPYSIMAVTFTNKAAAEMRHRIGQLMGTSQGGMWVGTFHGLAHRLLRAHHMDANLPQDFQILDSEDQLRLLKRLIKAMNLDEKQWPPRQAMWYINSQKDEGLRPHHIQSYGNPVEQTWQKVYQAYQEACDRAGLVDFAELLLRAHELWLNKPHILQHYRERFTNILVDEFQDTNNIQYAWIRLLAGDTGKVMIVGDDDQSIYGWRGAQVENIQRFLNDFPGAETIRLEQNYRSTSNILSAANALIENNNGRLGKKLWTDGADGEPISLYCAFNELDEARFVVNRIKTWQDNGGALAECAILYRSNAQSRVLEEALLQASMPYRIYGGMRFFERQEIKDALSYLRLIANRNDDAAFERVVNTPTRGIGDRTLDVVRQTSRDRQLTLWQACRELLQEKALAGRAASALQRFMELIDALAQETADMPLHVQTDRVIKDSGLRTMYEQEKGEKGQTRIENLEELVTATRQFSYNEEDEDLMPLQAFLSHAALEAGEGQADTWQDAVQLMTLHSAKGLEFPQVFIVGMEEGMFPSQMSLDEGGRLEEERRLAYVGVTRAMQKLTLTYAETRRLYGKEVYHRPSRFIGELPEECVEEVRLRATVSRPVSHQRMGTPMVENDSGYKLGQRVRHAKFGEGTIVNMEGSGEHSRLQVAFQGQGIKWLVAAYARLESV

Regarding UvrD (from UniProt P03018), the dissociation constant (Kd) was 35 nM.
